# From paper PMC11150344 (2024)
# T1: PIK3CA H1047L peptide on HLA-A*11:01 (human)
# T1 peptide: ALHGGWTTK
# T2: PIK3CA H1047L peptide on HLA-A*03:01 (human)
# T2 peptide: ALHGGWTTK
# B1: TCR1 (TCR)
# alpha TRAV13-2*01 TRAJ49*01 CDR3: CAEGETGNQFYF
# beta TRBV5-1*01 TRBJ2-1*01 CDR3: CASSSGTGGFEQFF
# B2: TCR5 (TCR)
# alpha TRAV24*01 TRAJ44*01 CDR3: CASHAGTASKLTF
# beta TRBV4-3*01 TRBJ2-1*01 CDR3: CASSQDVASSYNEQFF
# B3: TCR2 (TCR)
# alpha TRAV12-3*01 TRAJ26*01 CDR3: CATNYGQNFVF
# beta TRBV29-1*01 TRBJ2-7*01 CDR3: CSVSGTSNYEQYF
# B4: TCR4 (TCR)
# alpha TRAV19*01 TRAJ49*01 CDR3: CALSEATGNQFYF
# beta TRBV29-1*01 TRBJ2-7*01 CDR3: CSVQTLTSSDEQYF
# Target: T1, PIK3CA H1047L peptide on HLA-A*11:01
# Assay: multimer staining
row,binding result,Binder
1,recognises,B1
2,recognises,B2
3,recognises,B3
4,recognises,B4

# Target: T2, PIK3CA H1047L peptide on HLA-A*03:01
# Assay: activation reporter or marker
row,binding result,Binder
1,no recognition,B1
2,no recognition,B2
3,no recognition,B3
4,no recognition,B4
